Assay results from patent publication US20210156867A1.

Target: mouse recombinant His-calmodulin, calcium-bound (mouse), P0DP26

B1: Mastoparan, P01514 1-14 (peptide)
peptide: INLKALAALAKKIL
modifications: not checked
B1 gave a Kd of 1.2 nM.
